We go through 1 substance from PMC4944158.

This assay addresses GST-RabGAP5 C-terminal aa578-760. The experiment in a line: pull-down; GST fusion on Glutathione Sepharose beads incubated with supernatants of homogenised synaptosomes of wt and σ1B −/− mouse brains, 4 hours at RT, PBS; Western blot. (In general: In western blotting, separated proteins are transferred to a membrane and probed.)

Turning to “AP-1/σ1A complexes of σ1B −/− mice (from UniProt P22892 1-822; O35643 1-943; P35585 1-423; P61967 1-158)”, the percent more AP-1 isolated than from wt extracts is 30%.
